Results on one protein are retold here after PMC6086657, “Structure of the human volume regulated anion channel” (eLife, 2018).

The series concerns the molecule itself. The experiment in a line: cryo-EM structure; SWELL1-FLAG homomer in 20 mM Tris pH 8, 150 mM NaCl, 0.05% digitonin, ~8 mg/mL on UltrAuFoil grids; C3 symmetry imposed; ~4 Å map.

B1: human SWELL1 (LRRC8A) with a C-terminal FLAG-tag (SWELL1-GGG-FLAG) (natural protein, UniProt Q8IWT6 1-810, looked up)
chain: MIPVTELRYFADTQPAYRILKPWWDVFTDYISIVMLMIAVFGGTLQVTQDKMICLPCKWVTKDSCNDSFRGWAAPGPEPTYPNSTILPTPDTGPTGIKYDLDRHQYNYVDAVCYENRLHWFAKYFPYLVLLHTLIFLACSNFWFKFPRTSSKLEHFVSILLKCFDSPWTTRALSETVVEESDPKPAFSKMNGSMDKKSSTVSEDVEATVPMLQRTKSRIEQGIVDRSETGVLDKKEGEQAKALFEKVKKFRTHVEEGDIVYRLYMRQTIIKVIKFILIICYTVYYVHNIKFDVDCTVDIESLTGYRTYRCAHPLATLFKILASFYISLVIFYGLICMYTLWWMLRRSLKKYSFESIREESSYSDIPDVKNDFAFMLHLIDQYDPLYSKRFAVFLSEVSENKLRQLNLNNEWTLDKLRQRLTKNAQDKLELHLFMLSGIPDTVFDLVELEVLKLELIPDVTIPPSIAQLTGLKELWLYHTAAKIEAPALAFLRENLRALHIKFTDIKEIPLWIYSLKTLEELHLTGNLSAENNRYIVIDGLRELKRLKVLRLKSNLSKLPQVVTDVGVHLQKLSINNEGTKLIVLNSLKKMANLTELELIRCDLERIPHSIFSLHNLQEIDLKDNNLKTIEEIISFQHLHRLTCLKLWYNHIAYIPIQIGNLTNLERLYLNRNKIEKIPTQLFYCRKLRYLDLSHNNLTFLPADIGLLQNLQNLAITANRIETLPPELFQCRKLRALHLGNNVLQSLPSRVGELTNLTQIELRGNRLECLPVELGECPLLKRSGLVVEEDLFNTLPPEVKERLWRADKEQA
notes: SWELL1 (LRRC8A), human, UniProt Q8IWT6, cDNA Origene #RC208632; the abstract calls it full-length; the model holds residues 15-68, 94-174, 232-802 (inner subunit) and 15-68, 94-175, 214-802 (outer subunit); Homohexamer (trimer of dimers); The solubilization buffer held 2 mg/mL iodoacetamide; One endogenous SWELL1 allele remained intact in the expression cell line; also called SWELL1-FLAG; …
Turning to B1, the stoichiometry N (commonly the number of molecules, sites or subunits per partner or assembly) turned out to be 6.
